Results published in publication PMC5096715, “Mapping the Complement Factor H-Related Protein 1 (CFHR1):C3b/C3d Interactions” (PLoS ONE, 2016).

Target: the molecule itself
Assay: SEC; preparative HiPrep 16/60 Sephacryl S200 column in DPBS pH 7.4

B1: complement factor H-related protein 1 (CFHR1), recombinant wild-type (natural protein, human, UniProt Q03591 19-330, looked up)
chain: EATFCDFPKINHGILYDEEKYKPFSQVPTGEVFYYSCEYNFVSPSKSFWTRITCTEEGWSPTPKCLRLCFFPFVENGHSESSGQTHLEGDTVQIICNTGYRLQNNENNISCVERGWSTPPKCRSTDTSCVNPPTVQNAHILSRQMSKYPSGERVRYECRSPYEMFGDEEVMCLNGNWTEPPQCKDSTGKCGPPPPIDNGDITSFPLSVYAPASSVEYQCQNLYQLEGNKRITCRNGQWSEPPKCLHPCVISREIMENYNIALRWTAKQKLYLRTGESAEFVCKRGYRLSSRSHTLRTTCWDGKLEYPTCAKR
notes: complement factor H-related protein 1, human, CFHR1*A variant, residues 19-330 of Q03591 (the mature protein, 5 SCR modules); no cleavage of the tag is told; Glycosylated; elutes as a mixture of dimers and monomers; also called wild-type CFHR1; CFHR1*A variant; source: Freestyle 293f cells, transiently transfected, secreted, purified (Histrap HP, Sephacryl S200 SEC); not shown: His6, N-terminal, …
stoichiometry N: 2
